Measurements published in the supplement of paper PMC9732359.
± gives the uncertainty stated by the source.

Assay: protein stability index of a GFP-peptide fusion (yeast GPS) (PSI 1-4); higher = more stable; sorted into four equal gates, so the index is relative within each strain
How it was run: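 Sequencing reads from sorted gates were used to score each peptide. The library consisted of tiled 17-residue yeast protein peptides fused downstream of GFP on a Cherry-expressing plasmid, pooled and carried in yeast. Mid-log cultures in leucine-free medium were split into four equal gates by GFP/Cherry ratio, and each gate's plasmids were PCR-amplified and Illumina-sequenced. The protein stability index adds up, over all gates, the read frequency multiplied by the gate number.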

| Sequence | protein stability index (doa10∆) | protein stability index (pdr5∆) | protein stability index (san1∆) | protein stability index (ubr1∆) |
| --- | --- | --- | --- | --- |
| LLNEWSHNVDELLEHIE [RPN5] | 2.57 ± 0.12 | 1.9 ± 0.09 | 2.13 ± 0.19 | 1.58 ± 0.061 |
| LLPTNNGQPLNQNFSLT [GRR1] | 3.06 ± 0.058 | 2.95 ± 0.045 | 2.81 ± 0.045 | 3.02 ± 0.047 |
| LLRALKTNEESAKMILL [PRP8] | 3.05 ± 0.099 | 2.98 ± 0.1 | 2.86 ± 0.071 | 2.92 ± 0.037 |
| LLRLASKSTSMKLSMPP [POP1] | 2.75 ± 0.064 | 2.76 ± 0.065 | 2.69 ± 0.059 | 2.81 ± 0.049 |
| LLRQKIEQCKHPLHELI [ISW2] | 1.37 ± 0.088 | 1.49 ± 0.081 | 1.45 ± 0.22 | 1.48 ± 0.12 |
| LLRSVLVLLELVSSGDR [YML103C/NUP188] | 1.84 ± 0.23 | 2.03 ± 0.12 |  | 2.28 ± 0.15 |
| LLSDPTITIKSYHLWPS [PRP8] | 2.33 ± 0.063 | 2.62 ± 0.073 | 2.53 ± 0.094 | 2.51 ± 0.077 |
| LLTLTNAANVPVENIWA [RPP1A] | 2.12 ± 0.081 | 2.56 ± 0.13 | 2.48 ± 0.11 | 2.55 ± 0.094 |
| LLTNDESAFENLMGNRN [SNF12] | 2.96 ± 0.14 | 2.7 ± 0.12 | 3 ± 0.19 | 3.14 ± 0.078 |
| LLTNFHGMDFTTDKLRS [RPS1A] | 2.52 ± 0.1 | 3.02 ± 0.084 | 2.84 ± 0.097 | 2.81 ± 0.077 |
| LLWLVLIHPENFTCNRK [SWI1] | 1.9 ± 0.056 | 1.92 ± 0.063 | 2.38 ± 0.064 | 2.96 ± 0.074 |
| LMTFNAETKSYDSRGVG [YLR335W/NUP2] | 2.19 ± 0.063 | 2.65 ± 0.059 | 2.74 ± 0.054 | 2.71 ± 0.048 |
| LMVFNDDTKNQDSMSKG [YGR119C/NUP57] | 3.04 ± 0.08 | 3.46 ± 0.16 | 2.94 ± 0.18 | 3.05 ± 0.071 |
| LNAELESKLIPQENDLE [SMC3] | 3.12 ± 0.1 | 3.16 ± 0.076 | 3.23 ± 0.075 | 3.15 ± 0.057 |
| LNATKISPSAPSKDSFT [YAR002W/NUP60] | 2.8 ± 0.068 | 3 ± 0.068 | 2.94 ± 0.052 | 3 ± 0.043 |
| LNDEYNYPQLTEDILKE [YCS4] | 2.91 ± 0.15 | 3.12 ± 0.099 | 3 ± 0.071 | 3.49 ± 0.085 |
| LNDLNHLLVQLQKNDVY [REC8] | 2.52 ± 0.051 | 2.48 ± 0.047 | 2.47 ± 0.058 | 2.17 ± 0.042 |
| LNDRFQTLSSHLEALQP [PGD1] | 2.64 ± 0.04 | 2.69 ± 0.042 | 2.63 ± 0.04 | 2.54 ± 0.032 |
| LNDRQEEISRLQRDLIQ [YIL149C/MLP2] | 2.72 ± 0.11 | 3.25 ± 0.25 | 3.07 ± 0.26 | 3.05 ± 0.12 |
| LNEAPFPEENIIDAKTR [MCD1] | 3.12 ± 0.078 | 3.17 ± 0.052 | 3.136 ± 0.031 | 3.27 ± 0.051 |
| LNELKAIKDKLEQDLHF [YIL149C/MLP2] | 3 ± 0.07 | 3.13 ± 0.069 | 2.82 ± 0.07 | 3.24 ± 0.063 |
| LNENARELEQIKPKIAL [SNF12] | 3.23 ± 0.3 | 3 ± 0.23 | 2.64 ± 0.25 |  |
| LNFYITNVPKAKKRKTL [SIR3] | 1.97 ± 0.12 | 1.86 ± 0.093 | 1.63 ± 0.12 | 1.86 ± 0.071 |
| LNLFSNVLKAPFIKSES [SIR4] | 1.67 ± 0.061 | 1.75 ± 0.087 | 1.26 ± 0.13 | 1.79 ± 0.056 |
| LNLSLHKLDLAKRNLDA [SMC2] | 2.28 ± 0.046 | 2.78 ± 0.043 | 2.62 ± 0.047 | 2.17 ± 0.029 |
| LNSFVNDIFERIATEAS [HTB1] | 2.95 ± 0.11 | 2.89 ± 0.091 | 2.63 ± 0.1 | 2.96 ± 0.061 |

| Sequence | protein stability index (doa10∆) | protein stability index (pdr5∆) | protein stability index (san1∆) | protein stability index (ubr1∆) |
| --- | --- | --- | --- | --- |
| LNSLKDERSQGEKNFTS [SMC4] | 3.41 ± 0.12 | 3.3 ± 0.25 | 3.05 ± 0.087 | 3.5 ± 0.11 |
| LNSMEKDRISHEVVQDD [PCI8] | 2.61 ± 0.079 | 2.69 ± 0.061 | 3.01 ± 0.067 | 2.41 ± 0.12 |
| LNTVLIADLDTEAEETS [RRP43] | 3.11 ± 0.08 | 2.87 ± 0.065 | 3.04 ± 0.047 | 3.21 ± 0.051 |
| LNVIIDQLAVSPEQIDA [YCS4] | 2.19 ± 0.05 | 2.44 ± 0.056 | 2.11 ± 0.064 | 2.11 ± 0.044 |
| LNVTPSKRPQLGEIPNP [SIR4] | 2.54 ± 0.072 | 2.83 ± 0.066 | 2.66 ± 0.075 | 2.88 ± 0.063 |
| LNVYHYFGENSSISWKN [YJL039C/NUP192] | 1.79 ± 0.08 | 2.76 ± 0.082 | 2.65 ± 0.083 | 3.03 ± 0.1 |
| LNYGVYLNGTLIGSIRF [RET1] | 1.43 ± 0.07 | 2.29 ± 0.097 | 2.53 ± 0.088 | 2.71 ± 0.088 |
| LPDGKNGNLEEEFAYVD [MED6] | 3.41 ± 0.066 | 3.44 ± 0.12 | 3.42 ± 0.052 | 3.32 ± 0.074 |
| LPDPILKNFLSYESLKK [MCD1] | 3 ± 0.094 | 3.14 ± 0.091 | 3.34 ± 0.046 | 3.37 ± 0.058 |
| LPGKVNTKEEFAAAPND [SNF5] | 2.66 ± 0.084 | 2.91 ± 0.061 | 2.84 ± 0.058 | 2.85 ± 0.067 |
| LPTNPTLDKPNAEATKE [CSE2] | 2.91 ± 0.072 | 2.87 ± 0.062 | 2.89 ± 0.046 | 2.85 ± 0.066 |
| LPYLSDTCAVSFDAVSD [YJR042W/NUP85] | 2.44 ± 0.1 | 2.63 ± 0.059 | 2.55 ± 0.078 | 2.87 ± 0.05 |
| LQAIDLLENPNCFFDVI [DIS3] | 2.48 ± 0.068 | 2.29 ± 0.066 | 3.06 ± 0.056 | 2.38 ± 0.056 |
| LQALKANDEEAYIKLLD [SNF2] | 2.91 ± 0.093 | 3.29 ± 0.1 | 3.36 ± 0.11 | 2.77 ± 0.2 |
| LQAQDRAHRIGQKNEVR [SNF2] | 3 ± 0.065 | 3.17 ± 0.077 | 2.86 ± 0.073 | 3.18 ± 0.063 |
| LQCPMLYVESTGKFVLQ [CSN12] | 2.34 ± 0.12 | 2.98 ± 0.12 | 2.43 ± 0.15 | 2.68 ± 0.1 |
| LQDELHKVSSQSTNLNR [YCS4] | 2.97 ± 0.061 | 3.06 ± 0.068 | 3.05 ± 0.045 | 2.87 ± 0.053 |
| LQEIYQTDAIKSDEAKW [RPN5] | 2.34 ± 0.09 | 2.5 ± 0.13 | 2.13 ± 0.13 | 2.16 ± 0.17 |
| LQIVNQLPANMVHLYSI [RPC17] | 1.85 ± 0.043 | 1.9 ± 0.045 | 1.67 ± 0.068 | 1.79 ± 0.039 |
| LQKAVRGHVLQFEWHQN [SNF2] | 1.27 ± 0.043 | 1.34 ± 0.063 | 1.37 ± 0.16 | 1.35 ± 0.058 |
| LQKEFLPHITQLEGFES [RPB2] | 1.9 ± 0.047 | 1.84 ± 0.041 | 1.69 ± 0.053 | 1.55 ± 0.025 |
| LQLSKTPLSIKIMVAEW [SRB8] | 2.31 ± 0.17 | 2.84 ± 0.072 | 2.69 ± 0.13 | 3 ± 0.12 |
| LQMRLKESEISHNENKM [YIL149C/MLP2] | 2.94 ± 0.065 | 2.96 ± 0.068 | 3.18 ± 0.068 | 3.18 ± 0.09 |
| LQNSERDVELSSDELKV [SMC4] | 2.84 ± 0.11 | 3.12 ± 0.088 | 2.73 ± 0.066 | 3.04 ± 0.12 |
| LQQQTPVTIWLFEQIGI [SME1] | 1.66 ± 0.045 | 1.87 ± 0.041 | 1.64 ± 0.072 | 2 ± 0.042 |
| LQRQQRKSKLNLDNLQK [POP4] | 2.72 ± 0.077 | 3.22 ± 0.2 | 3.09 ± 0.064 | 2.92 ± 0.15 |
